In general, stoichiometry N refers to a count of units in the complex or per binding partner.

This note sets out measurements from paper PMC10739154, “Reinvestigation of Disulfide-bonded Oligomeric Forms of the Unfolded Protein Response Transducer ATF6” (Cell Structure and Function, 2019).

Holding throughout (assay): non-reducing SDS-PAGE with immunoblotting; ATF6α-TAP constructs of various lengths at the N-terminus in HCT116 DKO cells; lysates on non-reducing SDS-PAGE; blot with anti-Myc; shows disulfide-bonded forms
A general note: In western blotting, separated proteins are transferred to a membrane and probed.

Assay [1] has as its target C467A mutant of ATF6α(Δ331)-TAP (human).
The target in assay [2] is C467A mutant of ATF6α(Δ355)-TAP (human).
Assay [3] concerns the target C467A mutant of ssATF6α(C)-TAP (human).
Assay [4] deals with C618A mutant of ATF6α(Δ331)-TAP (human).
The target of assay [5] is C618A mutant of ATF6α(Δ355)-TAP (human).
The target in assay [6] is C618A mutant of ssATF6α(C)-TAP (human).

“C467A mutant of ATF6α(Δ331)-TAP (domain or fragment)” yielded a stoichiometry N in assay [1] of 2.
Regarding “C467A mutant of ATF6α(Δ355)-TAP (domain or fragment)”, the stoichiometry N in assay [2] came out at 2.
On to “C467A mutant of ssATF6α(C)-TAP (domain or fragment)”, for which the stoichiometry N in assay [3] turned out to be 2.
Regarding “C618A mutant of ATF6α(Δ331)-TAP (domain or fragment)”, in assay [4], the stoichiometry N worked out at 2.
In turn, “C618A mutant of ATF6α(Δ355)-TAP (domain or fragment)” gave a stoichiometry N in assay [5] of 2.
For “C618A mutant of ssATF6α(C)-TAP (domain or fragment)”, the stoichiometry N in assay [6] worked out at 2.
